Molecular target: vinculin (UniProt P18206)
Test: FLAG IP, LC-MS/MS spectral counting
Conditions: reference: FLAG-EZH2 wild type; sites T367

## EZH2 (from UniProt Q15910) FLAG-EZH2 T367A
  binding against the reference: weaker

Source: article PMC6051995
